Data from the DeepSol protein solubility set.

Experiment: soluble on expression in E. coli; label from the status in PepcDB or PDB records

Sequence | soluble on expression in E. coli
MDMDREQSVQHFLDLIKKSHRGKFKIYIGMIAGVGKSYRMLQEAHELLENGVDVQIGYIETHGRAGTEALMQGLPVIPRRKIFYKGKELEEMDVDAIIRLHPEIVIVDELAHTNVEGSLNEKRWQDVMTLLDEGINVISAINIQHIESVNEEVQEITGIEVKERVPDSVLQEADEVVNIDLTAEELISRLKAGKIYRPEKIQTALDNFFRTENILQLRELALKEVALRVEKKVENEVVMGVSVGIRHEKFMACISSHEKTPRRIIRKAARLATRYNTTFVALYVQTPRESMDRIDLASQRYLLNHFKLVAELGGEVIQVQSKDILGSIVKVCRDKQISSVCMGTPNLRFPHAICSILGYRKFLNNLSQANVDLIILA | not soluble
MDMNSFSPMMPTSPLSMINQIKFEDEPDLKDLFITVDEPESHVTTIETFITYRIITKTTRGEFDSSEFEVRRRYQDFLWLKGKLEEAHPTLIIPPLPEKFIVKGMVERFNDDFIETRRKALHKFLNRIADHPTLTFNEDFKIFLTAQAWELSSHKKQGPGLLSRMGQTVRAVASSMRGVKNRPEEFMEMNNFIELFSQRINLIDKISQRIYKEEREYFDEMKEYGPIHILWSASEEDLVDTLKDVASCIDRCCKATEKRMSGLSEALLPVVHEYVLYSEMLMGVMKRRDQIQAELDSKVEVLTYKKADTDLLPEEIGKLEDKVECANNALKADWERWKQNMQNDIKLAFTDMAEENIHYYEQCLATWESFLTSQTNLHLEEASEDKP | soluble
MDNEFTSPVYGVKAVPVERIRANSYNPNVTAPPEMRLLELSIWEDGYTMPCVCYYIEKEDVYELVDGYHRYKVMMTSPRIYKRENGLLPVTVIRKDLAERMASTIRHNRARGMHKIELMTRLVGELTRSGMSDSWIRRNLGMDKDELLRLKQISGLAELFADKEFRKAVE | not soluble
MDNEKGLLIVLSGPSGVGKGTVRKRIFEDPSTSYKYSISMTTRQMREGEVDGVDYFFKTRDAFEALIKDDQFIEYAEYVGNYYGTPVQYVKDTMDEGHDVFLEIEVEGAKQVRKKFPDALFIFLAPPSLEHLRERLVGRGTESDEKIQSRINEARKEVEMMNLYDYVVVNDEVELAKNRIQCIVEAEHLKRERVEAKYRKMILEAKK | soluble
MDNLLNEKKLTIFTSNEIQDNLNRVLKDYEQNGIIGLNGYLNQANRISLLNELEIMQKDAEQDIARYWNNKIIHFYSKDPLKPESVDREYVTEPYFQASSNKAHVFYEVIDNMRVVNRIGHGMHLINRYPMMQRAVYDSPVLLDLLKGIGFKKPICHLSVYIPKYPNGIGSEVRPHQESTFAFTEPQSVVVLWVALEDALIENACMYGVLGSNHWPLKWVSKVDRETKTRHFEQVHQLHIPDFMTEREFYTALEVKAGDALLFHGNFVHCSPMNTSKNSRKALSFQFIETYEVDYPETNWLYPPNKVYLYLEHHHHHH | not soluble
MDNNPIENFMRTTMENIKGMIDVNTIVGEPIKNTDGSLIIPISKVSFGFASGGSEFKSQEDSQENKKIYPFGGGAGAGVSLKPIAFLVIKDDSVRLLPLNAENTYEKVVDMIPQLIEMCKGFSHKSKKEKCCNDDKKKDSNSTNGNTDNANQNSQQQSLEHHHHHH | soluble
MDNTYRDEKVNGCGPGDVNLMLELLEKGEKIGGKSADQSSLFVALCRSVGIPAREVFGIRVLPSSFSEGLSIKPGSKDITKAQHCRAEFWAGEWIPVDPADVTKLILKEKLPRNHPRVNFARRYFFGNWDPHWIAYNWGRDFVLEPPQRVKPLNLFGYPYAEVKGEPLNWLEPKSFVYRIKLVRA | not soluble
MDPDKKKMFEVIIKKIQQQSSALEEAMKAQKPKVDCSMSREMCSPSGLIIIMERIYEKEFLADMARLNVLPVDVLTRVSAQDSIATEEAKGRLLNESRDVLSEWLDHNHGKDARDHSVFDDLAKRRIFYLAGPFLQSQWHLECSVISSSAVPAARNIVWNDHLRIRRDAAVAAAAAVNNTAGLADMDQGTRIELPKSKHQWSHQDASRHIKFVKSSVGKFFKKKIIQKFSTGGSQNLFFFYTSVCVQDIALNCTSPFWEINNEYNPVIKFSKIRFPADISVINGFRMPFLKM | not soluble
